Test results published in article PMC4455283, “Crystal structure of TRIM20 C-terminal coiled-coil/B30.2 fragment: implications for the recognition of higher order oligomers” (Scientific Reports, 2015).

Experiments:
[1] = target: T1, pro-interleukin-1β (UniProt P01584 1-269); test: SPR; TRIM20Δ413 and pro-IL-1β; heterogeneous ligand model; apparent dissociation constants; immobilised partner not told in the text shown; conditions: both partners purified
T1 construct: pro-interleukin-1β (uncleaved precursor of IL-1β); Printed mass 31.9 kDa; The FLAG tag is named for the co-immunoprecipitation; also called pro-IL-1β; FLAG-tagged pro-IL-1β; source: purified

[2] = target: the molecule itself; test: AUC; sedimentation velocity analytical ultracentrifugation at 4 °C

B1: TRIM20Δ413 (TRIM20 coiled-coil/B30.2 fragment) (domain or fragment, human, UniProt O15553 414-781, looked up)
chain: EVALEHKKKIQKQLEHLKKLRKSGEEQRSYGEEKAVSFLKQTEALKQRVQRKLEQVYYFLEQQEHFFVASLEDVGQMVGQIRKAYDTRVSQDIALLDALIGELEAKECQSEWELLQDIGDILHRAKTVPVPEKWTTPQEIKQKIQLLHQKSEFVEKSTKYFSETLRSEMEMFNVPELIGAQAHAVNVILDAETAYPNLIFSDDLKSVRLGNKWERLPDGPQRFDSCIIVLGSPSFLSGRRYWEVEVGDKTAWILGACKTSISRKGNMTLSPENGYWVVIMMKENEYQASSVPPTRLLIKEPPKRVGIFVDYRVGSISFYNVTARSHIYTFASCSFSGPLQPIFSPGTRDGGKNTAPLTICPVGGQGPD
notes: TRIM20 (pyrin, marenostrin), human, UniProt O15553; construct starting with E414, comprising the CHS (coiled-coil, E414-N586) and B30.2 (E589-G776) domains; Calculated monomer mass printed as 42 737 Da (85.7 kDa dimer); also called CHS-B30.2; TRIM20 C-terminal coiled-coil/B30.2 fragment; source: purified
apparent KD, heterogeneous ligand model, first constant [1]: 0.7 µM
apparent KD, heterogeneous ligand model, second constant [1]: 13.7 µM
stoichiometry N [2]: 2
